What was measured:
C57BL/6 mice = assay: In vivo anti-drug antibody (ADA) titers in mice; design: species or system mouse; settings: 4 mg/kg subcutaneous, day 20
Method: Adalimumab and Adalimumab-Siglec Ligand conjugates were prepared as described in Example 4. The Adalimumab-Siglec ligand was conjugated by maleimide coupling to engineered cysteine residue L443C in the heavy chain constant region.
To evaluate the production of antibodies specific to adalimumab and/or adalimumab-Siglec Ligand conjugates, C57BL/6 mice were immunized through subcutaneous injection with adalimumab or CD22 ligand-conjugated adalimumab. On study day −1, animals were randomized into treatment groups based on body weight. On study day 0, animals were bled for baseline serum and then injected subcutaneously with adalimumab or the adalimumab-Siglec Ligand conjugate. The individual antigens were prepared by making antigen solution in sterile PBS pH 7.4. […]
ADA assays were performed on 96-well assay plates (Nunc Plates, Black 96-Well Immuno Plates, Thermo Scientific, Cat. No. 437111) coated with antigen, as follows. […] The excitation and emission settings for the QuantaBlu Fluorogenic Peroxide Substrates are 325 nm and 420 nm and the relative florescence units were measured using a SpectraMax plate reader. […] The titer cut point was determined by calculating the mean of the naïve, untreated mice and adding twice the standard deviation of the untreated samples.

[1] = Pharmacokinetic monitoring in mice after single subcutaneous administration; type: in vivo, mouse; settings: C57BL/6 mice, single subcutaneous dose 4 mg/kg
Method: Pharmacokinetic monitoring was also carried out in the same C57BL/6 mice following a single subcutaneous administration of adalimumab or the SigL-conjugated adalimumab antibodies. Animals were bled via the retro-orbital sinus throughout the study under inhaled isoflurane anesthesia at 1 h, 6 h, 1-day, 2-days, 6-days, 13-days, 20 days and 27-days post test-article administration. Whole blood was collected into Microvette K2EDTA capillary collection tube (Sarstedt Inc) and then further processed following manufactures instructions to collect plasma. Levels of adalimumab and SigL-conjugated adalimumab in plasma samples were measured using an AlphaLISA human IgG assay (Perkin Elmer) following manufacturer's protocols.

Question: With Adalimumab as the substance, how does the ADA titers (C57BL/6 mice) read?
Answer: The ADA titers was “high ADA titers”.

Question: And the clearance [1]?
Answer: The clearance was “significantly increased clearance”.

Question: What about the “time of falling below the limit of quantitation (BLOQ)” value [1] of the same substance?
Answer: Its value is 13 days.

Source: patent publication US20250127904A1, “SIGLEC LIGANDS, CONJUGATES, AND METHODS OF USE THEREOF” (Osprey Biopharmaceuticals, Inc., priority 2023, published 2025)
